Here are results for 21 variants from the RNAGym collection of RNA variant scans (doi:10.7554/elife.90254).

To fix the notation:
B1: OR4K15 (parent)
chain: GUUAACGGUCAUAGGCCAUGGAAACUAGGAGCACCAUUUCGCUGCCAGUGAAGAAAUGAACAAAGAAAAUCUGGGCCAGGCAGGCAUCAAAAGAAAUAGUCUUGCGCUCAACCAGAAAGUCUGUAAUCAUUUUAAGGGUA

Variants of B1 are the subject of this data set. Put plainly: self-cleavage, relative activity (ratio to wild type); higher = more cleavage; in vitro, sequencing; the parent is a self-cleaving ribozyme.
For the variant GUUAACGGUCAUAGGCCAUGGAAACUAGGAGCACCAUUUCGCUGCCAGUGAAGAAAUGCACAAAGAAAAUCUGGGCCAGGCAGGCAUCAAAAGAAAUAGUCCUGCGCUCAACCAGAAAGUCUGUAAUCAUUUUAAGGGUA [A59C U102C], the self-cleavage was 1.51. The same measure for GUUAACGGUCAUAGGCCAUGGAAACUAGGAGCACCAUUUCGCUGCCAGUGAAGAAAUGCACAAAGAAAAUCUGGGCCAGGCAGGCAUCAAAAGAAAUAGUCUUGCGCUCAACCAGAAAGUCUGUAACCAUUUUAAGGGUA [A59C U127C]: 1.18.

As to GUUAACGGUCAUAGGCCAUGGAAACUAGGAGCACCAUUUCGCUGCCAGUGAAGAAAUGCACAAAGAAAAUCUGGGCCAGGCAGGCAUCAAAAGAAAUAGUCUUGCGCUCAACCAGAAAGUCUGAAAUCAUUUUAAGGGUA [A59C U124A], the self-cleavage came out at 0.73. In the case of GUUAACGGUCAUAGGCCAUGGAAACUAGGAGCACCAUUUCGCUGCCAGUGAAGAAAUUAACAAAGAAAAUCUGGGCCAGGCAGGCAUCAAAAGAAAUAGUCUUGCGCCCAACCAGAAAGUCUGUAAUCAUUUUAAGGGUA [G58U U108C], the self-cleavage was found to be 0.02.

With GUUAACGGUCAUAGGCCAUGGAAACUAGGAGCACCAUUUCGCUGCCAGUGAAGAAAUGCACAAAGAAAAUCUGGGCCAGGCAGGCAUCAAAAGAAAUAGUCUCGCGCUCAACCAGAAAGUCUGUAAUCAUUUUAAGGGUA [A59C U103C], the self-cleavage came to 0.57. The same measure for GUUAACGGUCAUAGGCCAUGGAAACUAGGAGCACCAUUUCGCUGCCAGUGAAGAAAUUAACAAAGAAAAUCUGGGCCAGGCAGGCAUCAAAAGAAAUAGUCUUGCGCUCAACCAGAAAGUCUGUAACCAUUUUAAGGGUA [G58U U127C]: 1.33; for GUUAACGGUCAUAGGCCAUGGAAACUAGGAGCACCAUUUCGCUGCCAGUGAAGAAAUUAACAAAGAAAAUCUGGGCCAGGCAGGCAUCAAAAGAAAUAGCCUUGCGCUCAACCAGAAAGUCUGUAAUCAUUUUAAGGGUA [G58U U100C]: 2.08; for GUUAACGGUCAUAGGCCAUGGAAACUAGGAGCACCAUUUCGCUGCCAGUGAAGAAAUGCACAAAGAAAAUCUGGGCCAGGCAGGCAUCAAAAGAAAUAGUCUUGCGCUCAACCAGAAAGUCUGUAAUCAUUCUAAGGGUA [A59C U132C]: 1.64. GUUAACGGUCAUAGGCCAUGGAAACUAGGAGCACCAUUUCGCUGCCAGUGAAGAAAUGGACAAAGAAUAUCUGGGCCAGGCAGGCAUCAAAAGAAAUAGUCUUGCGCUCAACCAGAAAGUCUGUAAUCAUUUUAAGGGUA [A59G A68U]: the self-cleavage came out at 1.91. The same measure for GUUAACGGUCAUAGGCCAUGGAAACUAGGAGCACCAUUUCGCUGCCAGUGAAGAAAUGCACAAAGAAAAUCUGGGCCAGGCAGGCAUCAAAAGAAAUAGUCUUGCGCUCAACAAGAAAGUCUGUAAUCAUUUUAAGGGUA [A59C C113A]: 0.02; for GUUAACGGUCAUAGGCCAUGGAAACUAGGAGCACCAUUUCGCUGCCAGUGAAGAAAUGGACAAAGAAACUCUGGGCCAGGCAGGCAUCAAAAGAAAUAGUCUUGCGCUCAACCAGAAAGUCUGUAAUCAUUUUAAGGGUA [A59G A69C]: 0.6; for GUUAACGGUCAUAGGCCAUGGAAACUAGGAGCACCAUUUCGCUGCCAGUGAAGAAAUGGACAAAGAAAUUCUGGGCCAGGCAGGCAUCAAAAGAAAUAGUCUUGCGCUCAACCAGAAAGUCUGUAAUCAUUUUAAGGGUA [A59G A69U]: 1.7. The same measure for GUUAACGGUCAUAGGCCAUGGAAACUAGGAGCACCAUUUCGCUGCCAGUGAAGAAAUGGACAAAGAAAAUCUGGGCCAGGCAGGCAUCAAAAGAAAUAGUCUUGCGCUCAACCAGAAAGUCUGUAAUCAUUUUAAGGGUA [A59G]: 1.06. The value for GUUAACGGUCAUAGGCCAUGGAAACUAGGAGCACCAUUUCGCUGCCAGUGAAGAAAUGCACAAAGAAAAUCUGGGCCAGGCAGGCAUCAAAAGAAAUAGUCUUGCGCUCAACCAGAAAGUCUGUAAUCAUUUUAAGGGUA [A59C] was 1.66. Take GUUAACGGUCAUAGGCCAUGGAAACUAGGAGCACCAUUUCGCUGCCAGUGAAGAAAUGGACCAAGAAAAUCUGGGCCAGGCAGGCAUCAAAAGAAAUAGUCUUGCGCUCAACCAGAAAGUCUGUAAUCAUUUUAAGGGUA [A59G A62C]: the self-cleavage came to 0.43.

As for GUUAACGGUCAUAGGCCAUGGAAACUAGGAGCACCAUUUCGCUGCCAGUGAAGAAAUGGACAAAGUAAAUCUGGGCCAGGCAGGCAUCAAAAGAAAUAGUCUUGCGCUCAACCAGAAAGUCUGUAAUCAUUUUAAGGGUA [A59G A66U], the self-cleavage stood at 1.75. GUUAACGGUCAUAGGCCAUGGAAACUAGGAGCACCAUUUCGCUGCCAGUGAAGAAAUGGACAAAGGAAAUCUGGGCCAGGCAGGCAUCAAAAGAAAUAGUCUUGCGCUCAACCAGAAAGUCUGUAAUCAUUUUAAGGGUA [A59G A66G]: the self-cleavage stood at 1.15. The same measure for GUUAACGGUCAUAGGCCAUGGAAACUAGGAGCACCAUUUCGCUGCCAGUGAAGAAAUGGACAAUGAAAAUCUGGGCCAGGCAGGCAUCAAAAGAAAUAGUCUUGCGCUCAACCAGAAAGUCUGUAAUCAUUUUAAGGGUA [A59G A64U]: 0.74.

As to GUUAACGGUCAUAGGCCAUGGAAACUAGGAGCACCAUUUCGCUGCCAGUGAAGAAAUGGACAAGGAAAAUCUGGGCCAGGCAGGCAUCAAAAGAAAUAGUCUUGCGCUCAACCAGAAAGUCUGUAAUCAUUUUAAGGGUA [A59G A64G], the self-cleavage turned out to be 1.37. The same measure for GUUAACGGUCAUAGGCCAUGGAAACUAGGAGCACCAUUUCGCUGCCAGUGAAGAAAUUAACAAAGAAAAUCUGGGCCAGGCAGGCACCAAAAGAAAUAGUCUUGCGCUCAACCAGAAAGUCUGUAAUCAUUUUAAGGGUA [G58U U87C]: 0.38; for GUUAACGGUCAUAGGCCAUGGAAACUAGGAGCACCAUUUCGCUGCCAGUGAAGAAAUUAACAAAGAAAAUCUGGGCCAGGCAGGCAUCAAAAGAAAUAGUCUUGCACUCAACCAGAAAGUCUGUAAUCAUUUUAAGGGUA [G58U G106A]: 0.01.
